Results on four molecules are retold here after patent US20200397917, “ENGINEERED DNA BINDING PROTEINS” (Encoded Therapeutics, Inc., published 2020).

Data set [1] concerns the target EGR1-based eTF, 9 ZF (SCN1A) (synthetic). As to the kind of experiment: cell_activity; endogenous SCN1A, HEK293. As for the experimental part: (§1) HEK293 cells were cultured per standard methods, and transfected (FuGene HD, Promega) with 3 ug of each tested activator, or an EGFP control. 48h following transfection, cells were collected and RNA was isolated (Qiagen RNeasy Mini kit), and DNase treated. RNA (3 ug) was reverse transcribed using OligoDT primers (Superscript IV, Invitrogen). cDNA samples were analyzed by qPCR using Phusion Polymerase (New England Biolabs) and SYBR Green I: (30s at 98° C., 40×[10 sec at 98° C., 15 sec at 68° C., 15 sec at 72° C.]). Primers against human SCN1A (5′-[…]-3′ (SEQ ID NO: 190); 5′-[…]-3′ (SEQ ID NO: 191)) were used to quantify levels of reporter-driven EGFP transcript, and relative levels of EGFP expression were determined by the delta-delta Ct method with GAPDH as a reference gene (5′-[…]-3′ (SEQ ID NO: 192); 5′-[…]-3′ (SEQ ID NO: 193)). Data are presented as fold changes relative to the control condition. SEQ ID NOs: 6, 7, and 9 are eTFs derived from human EGR1 protein and are engineered to bind to a target site near or at endogenous SCN1A gene, wherein the target site is SEQ ID NOs: 35-37.

Data set [2] addresses EGR3-based eTF, 6 ZF (TRE) (synthetic). Description: cell_activity; versus control SEQ 187. As for the experimental part: (§2) HEK293 cells were cultured per standard methods, and co-transfected (FuGene HD, Promega) with 1.5 ug of a reporter plasmid consisting of EGFP under the control of a tetracycline-responsive element (TRE) tight promoter, and 1.5 ug of each tested activator, or empty vector control (pUC57). 48h following transfection, cells were imaged using an epifluorescent microscope for GFP expression. The cells were collected and RNA was isolated (Qiagen RNeasy Mini kit), and DNase treated. RNA (3 ug) was reverse transcribed using OligoDT primers (Superscript IV, Invitrogen). cDNA samples were analyzed by qPCR using Phusion Polymerase (New England Biolabs) and SYBR Green I: (30s at 98° C., 40×[10 sec at 98° C., 15 sec at 65° C., 15 sec at 72° C.]). Primers against EGFP (5′-[…]-3′ (SEQ ID NO: 369); 5′-[…]-3′ (SEQ ID NO: 370)) were used to quantify levels of reporter-driven EGFP transcript, and relative levels of EGFP expression were determined by the delta-delta Ct method with GAPDH as a reference gene (5′-[…]-3′ (SEQ ID NO: 192); 5′-[…]-3′ (SEQ ID NO: 193)).
(§3) Data are presented as fold changes relative to the control condition.

Data set [3] addresses EGR1-based eTF, duplicated 6 ZF (TRE) (synthetic). As to the kind of experiment: cell_activity; EGFP reporter. The method, then: as §2, §3
For data set [4], the target named is EGR1-based eTF, synthetic 6-ZF DBD (synthetic). As to the kind of experiment: cell_activity; EGFP reporter. The method, then:
as §2, §3

For a further data set, the target named is ZF DBD-VP64 (synthetic). As to the kind of experiment: cell_activity; EGFP reporter; about 40-fold in FIG. 33B. The note with it: tags: NLS. The method, then: as §2, §3
For another data set, the target named is ZF DBD-CITED2 (synthetic). Description: cell_activity; versus reporter alone. The conditions noted are these: tags: NLS; CITED2. As for the experimental part: as §2, §3
The target of another data set is ZF DBD-CITED4 (synthetic). As to the kind of experiment: cell_activity; versus reporter alone. The note with it: tags: NLS; CITED4. The method, then: as §2, §3
The target of data set [5] is EGR1-based eTF, 6 ZF (SCN1A) (synthetic). As to the kind of experiment: cell_activity; endogenous SCN1A, HEK293. As for the experimental part: as §1
A further data set concerns the target EGR1-based eTF, 3 ZF (synthetic, UniProt P18146 SEQ:1-543). Description: cell_activity; EGFP reporter. As for the experimental part: as §2, §3

ZF DBD-CITED4 (synthetic), sequence (chain, as listed by the source): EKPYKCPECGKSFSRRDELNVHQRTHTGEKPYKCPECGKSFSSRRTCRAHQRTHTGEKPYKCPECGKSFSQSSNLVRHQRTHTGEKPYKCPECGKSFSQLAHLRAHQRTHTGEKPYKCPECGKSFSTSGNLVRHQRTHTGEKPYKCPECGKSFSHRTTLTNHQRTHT
EGR1-based eTF, 6 ZF (SCN1A) (synthetic), sequence (chain, as listed by the source): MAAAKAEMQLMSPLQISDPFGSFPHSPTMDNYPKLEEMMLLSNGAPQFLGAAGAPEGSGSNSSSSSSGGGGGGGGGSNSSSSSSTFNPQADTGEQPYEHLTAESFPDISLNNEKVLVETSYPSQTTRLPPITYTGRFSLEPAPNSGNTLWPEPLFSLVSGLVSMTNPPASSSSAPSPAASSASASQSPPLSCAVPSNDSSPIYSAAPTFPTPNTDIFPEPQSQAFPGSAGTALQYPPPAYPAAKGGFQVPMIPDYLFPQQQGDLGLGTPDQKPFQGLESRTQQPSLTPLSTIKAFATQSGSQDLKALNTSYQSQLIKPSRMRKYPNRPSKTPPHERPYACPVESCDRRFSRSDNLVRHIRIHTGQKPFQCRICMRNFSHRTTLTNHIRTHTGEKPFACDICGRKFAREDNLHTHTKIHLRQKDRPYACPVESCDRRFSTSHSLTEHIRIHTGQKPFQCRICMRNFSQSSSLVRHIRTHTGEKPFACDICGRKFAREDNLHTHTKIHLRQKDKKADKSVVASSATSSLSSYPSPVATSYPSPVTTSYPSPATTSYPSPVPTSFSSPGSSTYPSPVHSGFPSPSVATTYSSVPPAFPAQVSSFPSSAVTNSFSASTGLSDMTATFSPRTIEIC
EGR1-based eTF, duplicated 6 ZF (TRE) (synthetic), sequence (chain, as listed by the source): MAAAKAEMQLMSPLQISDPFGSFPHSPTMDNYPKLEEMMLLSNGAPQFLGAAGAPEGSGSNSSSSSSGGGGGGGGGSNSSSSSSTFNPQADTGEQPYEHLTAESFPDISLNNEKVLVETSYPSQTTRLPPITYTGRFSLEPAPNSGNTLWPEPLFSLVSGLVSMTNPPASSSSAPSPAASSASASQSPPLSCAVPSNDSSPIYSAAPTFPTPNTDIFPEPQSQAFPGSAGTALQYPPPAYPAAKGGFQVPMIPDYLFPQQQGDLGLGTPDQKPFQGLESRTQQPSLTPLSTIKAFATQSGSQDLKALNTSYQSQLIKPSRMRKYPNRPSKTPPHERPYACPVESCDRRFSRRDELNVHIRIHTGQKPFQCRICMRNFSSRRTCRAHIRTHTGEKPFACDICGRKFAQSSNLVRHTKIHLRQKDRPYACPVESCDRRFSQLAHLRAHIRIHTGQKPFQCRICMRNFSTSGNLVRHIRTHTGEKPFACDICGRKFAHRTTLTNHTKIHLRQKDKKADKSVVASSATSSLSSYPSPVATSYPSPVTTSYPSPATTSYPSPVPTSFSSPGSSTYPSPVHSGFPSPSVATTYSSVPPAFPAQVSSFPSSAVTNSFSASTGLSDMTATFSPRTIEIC
EGR1-based eTF, 3 ZF, sequence (P18146 other isoform, or with tags, fused parts or gaps): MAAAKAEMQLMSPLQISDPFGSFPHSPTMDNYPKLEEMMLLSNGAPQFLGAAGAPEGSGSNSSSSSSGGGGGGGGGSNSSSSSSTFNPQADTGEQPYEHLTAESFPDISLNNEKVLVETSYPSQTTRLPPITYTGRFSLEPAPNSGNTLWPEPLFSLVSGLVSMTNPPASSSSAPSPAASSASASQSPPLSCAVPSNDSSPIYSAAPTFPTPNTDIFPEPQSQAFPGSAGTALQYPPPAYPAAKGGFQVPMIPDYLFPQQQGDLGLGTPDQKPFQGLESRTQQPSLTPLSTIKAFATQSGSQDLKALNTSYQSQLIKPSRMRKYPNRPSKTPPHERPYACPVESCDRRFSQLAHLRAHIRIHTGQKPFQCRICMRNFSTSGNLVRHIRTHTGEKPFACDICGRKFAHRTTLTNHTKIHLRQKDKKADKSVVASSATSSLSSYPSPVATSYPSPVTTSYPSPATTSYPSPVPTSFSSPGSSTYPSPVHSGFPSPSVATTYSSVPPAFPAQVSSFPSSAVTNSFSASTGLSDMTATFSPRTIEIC
EGR3-based eTF, 6 ZF (TRE) (synthetic), sequence (chain, as listed by the source): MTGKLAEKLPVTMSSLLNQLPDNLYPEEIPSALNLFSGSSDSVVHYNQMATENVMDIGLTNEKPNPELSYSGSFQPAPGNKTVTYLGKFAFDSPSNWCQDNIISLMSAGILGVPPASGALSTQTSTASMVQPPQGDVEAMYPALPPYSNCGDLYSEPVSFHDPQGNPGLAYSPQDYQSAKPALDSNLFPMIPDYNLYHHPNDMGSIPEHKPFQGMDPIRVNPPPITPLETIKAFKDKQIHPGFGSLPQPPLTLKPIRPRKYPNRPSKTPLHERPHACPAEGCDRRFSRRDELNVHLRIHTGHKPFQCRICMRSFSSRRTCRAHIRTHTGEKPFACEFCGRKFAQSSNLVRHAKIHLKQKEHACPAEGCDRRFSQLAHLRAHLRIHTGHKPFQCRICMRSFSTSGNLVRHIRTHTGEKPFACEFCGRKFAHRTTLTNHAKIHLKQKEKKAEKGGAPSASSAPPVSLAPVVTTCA
EGR1-based eTF, synthetic 6-ZF DBD (synthetic), sequence (chain, as listed by the source): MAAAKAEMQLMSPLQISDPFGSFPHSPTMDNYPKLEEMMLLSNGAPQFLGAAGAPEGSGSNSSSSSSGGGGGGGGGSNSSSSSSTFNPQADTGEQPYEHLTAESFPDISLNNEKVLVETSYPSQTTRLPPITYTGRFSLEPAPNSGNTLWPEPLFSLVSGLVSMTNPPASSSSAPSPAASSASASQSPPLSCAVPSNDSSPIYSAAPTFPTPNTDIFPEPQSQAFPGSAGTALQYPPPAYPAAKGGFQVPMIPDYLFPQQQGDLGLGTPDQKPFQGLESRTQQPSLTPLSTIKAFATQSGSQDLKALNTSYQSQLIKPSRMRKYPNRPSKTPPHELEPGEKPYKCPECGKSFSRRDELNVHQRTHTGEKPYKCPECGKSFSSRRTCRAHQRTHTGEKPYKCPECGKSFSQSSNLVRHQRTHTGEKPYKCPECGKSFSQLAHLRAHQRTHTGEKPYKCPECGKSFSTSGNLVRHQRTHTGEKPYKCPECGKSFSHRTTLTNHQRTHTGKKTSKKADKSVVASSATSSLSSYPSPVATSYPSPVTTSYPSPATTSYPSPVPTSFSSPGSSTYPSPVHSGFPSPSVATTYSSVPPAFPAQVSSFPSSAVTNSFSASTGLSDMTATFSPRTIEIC
EGR1-based eTF, 9 ZF (SCN1A) (synthetic), sequence (chain, as listed by the source): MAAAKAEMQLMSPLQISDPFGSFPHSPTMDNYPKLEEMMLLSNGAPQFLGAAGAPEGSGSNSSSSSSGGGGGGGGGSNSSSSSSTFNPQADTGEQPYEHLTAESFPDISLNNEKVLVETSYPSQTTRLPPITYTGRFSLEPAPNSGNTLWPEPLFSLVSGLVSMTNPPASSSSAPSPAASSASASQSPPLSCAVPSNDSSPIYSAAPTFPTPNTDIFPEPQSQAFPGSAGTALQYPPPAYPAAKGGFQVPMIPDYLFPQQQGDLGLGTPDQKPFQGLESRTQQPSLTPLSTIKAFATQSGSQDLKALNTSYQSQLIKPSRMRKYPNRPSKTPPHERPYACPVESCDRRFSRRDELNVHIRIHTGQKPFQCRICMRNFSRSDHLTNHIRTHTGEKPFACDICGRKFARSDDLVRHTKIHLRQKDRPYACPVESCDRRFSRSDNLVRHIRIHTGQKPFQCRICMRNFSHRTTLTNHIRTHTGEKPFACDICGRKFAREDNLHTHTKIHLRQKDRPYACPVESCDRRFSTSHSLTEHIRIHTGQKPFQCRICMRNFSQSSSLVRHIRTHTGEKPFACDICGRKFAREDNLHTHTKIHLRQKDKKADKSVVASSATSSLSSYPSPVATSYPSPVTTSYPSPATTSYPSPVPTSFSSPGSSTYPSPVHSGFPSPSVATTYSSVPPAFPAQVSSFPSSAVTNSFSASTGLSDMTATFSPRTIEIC

B1: SCN1A site 37 (dsDNA)
DNA 1: TAGGTACCATAGAGTGAGGCGAGGATG
DNA 2: CATCCTCGCCTCACTCTATGGTACCTA
The molecule B1 registered an activity in data set [1] of about 20 fold SCN1A.

B2: TRE reporter site (dsDNA)
DNA 1: AGTGATAGAGAACGTATG
DNA 2: CATACGTTCTCTATCACT
On to B2, for which the activity in data set [2] was at least 5 fold EGFP; in data set [3] it was 15 fold EGFP; in data set [4], 10 fold EGFP; with ZF DBD-VP64 it was 70 fold EGFP; in the data set with ZF DBD-CITED2 it was about 15 fold EGFP; with ZF DBD-CITED4, about 10 fold EGFP.

B3: SCN1A site 36 (dsDNA)
DNA 1: TAGGTACCATAGAGTGAG
DNA 2: CTCACTCTATGGTACCTA
For the molecule B3, the activity in data set [5] is about 7 fold SCN1A.

B4: TRE reporter 9-nt site (dsDNA)
DNA 1: AGTGATAGA
DNA 2: TCTATCACT
For the molecule B4, the activity with EGR1-based eTF, 3 ZF amounted to 3 fold EGFP.
